In patent US20210220432A1, “Application of Polypeptide in Preparation of Composition for Preventing and Treating Human Papillomavirus Infection” (GENLOCI BIOTECHNOLOGIES INC., priority 2018, published 2021):
No end group written: not given here.

What was measured:
HPV-16 L1 protein = target: T1, HPV-16 L1 protein (Human papillomavirus type 16, UniProt P03101); assay: Biomolecular interaction analysis (SPR, Biacore 3000) of the polypeptide with HPV-16 L1 protein; assay type: binding
T1 construct: purchased Abcam ab119880
Description: Biomolecular interaction analysis (BIA) is a biosensing analysis technology based on a physical optical phenomenon known as surface plasmon resonance (SPR). BIA can provide real-time observation of the interaction between biomolecules, through which, the binding specificity of two molecules can be observed, how strong the binding of the two molecules is can be known, and how many cooperators and participants there are in the binding process of biomolecules can be known.
In this experiment, BIA technology is used to observe whether there is an interaction between the polypeptide of the present invention and the HPV L1 protein, so as to explore the mechanism of inhibiting HPV virus by the polypeptide.
3. […]
(5) The coupling effect is automatically calculated by the software. In the experiment, the experimental channel is finally coupled with about 5300 RU of HPV-16 L1 Protein, where the unit RU is the unit of coupling quantity defined by the system. […]
(8) The program is designed according to the steps of equilibration, testing, equilibration, and regeneration, and the polypeptide solution of each concentration was detected. […] During the detection, the sample passes through the blank channel and the experimental channel in turn, and the data to be detected is the resultant difference of “experimental channel response value minus blank channel response value”. […]

HPV = conditions: literature study; HD6 at the highest cytotoxic dose; cited from earlier work
[1] = target: T2, HPV-16 L1 protein (Cat. No. ab119880, Abcam), recombinantly expressed (human papillomavirus type 16), P03101; assay: SPR, Biacore 3000, HPV-16 L1 amine-coupled on chip, polypeptide as analyte
T2 chain: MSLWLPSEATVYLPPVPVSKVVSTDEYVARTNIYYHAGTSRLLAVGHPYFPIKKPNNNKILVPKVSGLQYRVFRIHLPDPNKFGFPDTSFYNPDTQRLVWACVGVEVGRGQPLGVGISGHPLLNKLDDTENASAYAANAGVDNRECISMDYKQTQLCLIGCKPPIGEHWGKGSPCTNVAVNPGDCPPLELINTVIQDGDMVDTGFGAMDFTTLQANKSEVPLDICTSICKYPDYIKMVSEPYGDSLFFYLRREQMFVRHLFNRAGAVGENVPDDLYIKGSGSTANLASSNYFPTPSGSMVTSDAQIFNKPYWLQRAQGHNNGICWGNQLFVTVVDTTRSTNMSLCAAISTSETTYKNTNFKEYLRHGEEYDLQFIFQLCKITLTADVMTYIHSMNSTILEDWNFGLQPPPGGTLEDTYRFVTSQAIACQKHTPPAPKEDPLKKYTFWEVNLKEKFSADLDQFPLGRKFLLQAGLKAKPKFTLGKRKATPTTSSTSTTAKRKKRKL

Molecule: MGRFKRFRKKFKKLFKKLS [The polypeptide]
- Kd (HPV-16 L1 protein; KD, Affinity constant, SPR, kinetic analysis, HPV-16 L1 protein): 0.782 nM
- kon (HPV-16 L1 protein; read-out: ka, Binding constant): 2.35e+06 M⁻¹ s⁻¹

Molecule: HD6: human α-defensin secreted by human Paneth cells (AFTCHCRRSCYSTEYSYGTCTVMGINHRFCCL; ends and bridges not checked; cysteine pairing not given here; UniProt Q01524 69-100, looked up) [reference compound]
- Activity against HPV (HPV): inactive

Molecule: MGRFKRFRKKFKKLFKKLS (modifications not checked) [the polypeptide of the present invention (antimicrobial polypeptide, SEQ ID NO: 1)]
- Kd [1]: 0.782 nM
- koff [1]: 0.00184 s⁻¹
- kon [1]: 2.35e+06 M⁻¹ s⁻¹

B1: HD5: human α-defensin secreted by human Paneth cells (peptide, UniProt Q01523 20-94, looked up)
Defensin alpha 5: ESLQERADEATTQKQSGEDNQDLAISFAGNGLSALRTSGSQARATCYCRTGRCATRESLSGVCEISGRLYRLCCR
modifications: Defensin-5
notes: human α-defensin secreted by human Paneth cells
- Activity against HPV (HPV): inhibiting HPV activity
